In US8865654B2, “Eye drops” (Santen Pharmaceutical Co., Ltd., priority 2009, dated 2014):
No end group written: not given here.

Experiment: Stability test of eye drop (residual ratio by HPLC after storage at 40° C.)
Assay type: physicochemical
Conditions: eye drop SSSR acetate 0.003% + FGLM hydrochloride 0.05% (w/v)
Description: Each sample (100 mL, eye drop) containing the SSSR acetate at 0.003% (w/v) and the FGLM hydrochloride at 0.05% (w/v) was prepared at a pH in a range of 2.5 to 7.0 and stored at 40° C. The concentrations of the SSSR and the FGLM were measured by the HPLC method after 2 months storage, 3 months storage, and 6 months storage, and the residual ratios of the SSSR and the FGLM were determined, respectively.

## Ser-Ser-Ser-Arg (SSSR; printed: Ser-Ser-Ser-Arg) [partial peptide of insulin-like growth factor I, used as acetate]
pH 2.5, 40° C., 2 months
  Residual ratio of SSSR: 100%
pH 2.5, 40° C., 3 months
  Residual ratio of SSSR: 100%
pH 2.5, 40° C., 6 months
  Residual ratio of SSSR: 100%
pH 3.0, 40° C., 2 months
  Residual ratio of SSSR: 99%
pH 3.0, 40° C., 3 months
  Residual ratio of SSSR: 96%
pH 3.0, 40° C., 6 months
  Residual ratio of SSSR: 98%
pH 3.5, 40° C., 2 months
  Residual ratio of SSSR: 99%
pH 3.5, 40° C., 3 months
  Residual ratio of SSSR: 96%
pH 3.5, 40° C., 6 months
  Residual ratio of SSSR: 93%
pH 4.0, 40° C., 2 months
  Residual ratio of SSSR: 98%
pH 4.0, 40° C., 3 months
  Residual ratio of SSSR: 97%
pH 4.0, 40° C., 6 months
  Residual ratio of SSSR: 92%
pH 4.5, 40° C., 2 months
  Residual ratio of SSSR: 97%
pH 4.5, 40° C., 3 months
  Residual ratio of SSSR: 97%
pH 4.5, 40° C., 6 months
  Residual ratio of SSSR: 89%
pH 5.0, 40° C., 2 months
  Residual ratio of SSSR: 97%
pH 5.0, 40° C., 3 months
  Residual ratio of SSSR: 87%
pH 5.0, 40° C., 6 months
  Residual ratio of SSSR: 81%
pH 5.5, 40° C., 2 months
  Residual ratio of SSSR: 94%
pH 5.5, 40° C., 3 months
  Residual ratio of SSSR: 86%
pH 5.5, 40° C., 6 months
  Residual ratio of SSSR: 80%
pH 6.0, 40° C., 2 months
  Residual ratio of SSSR: 90%
pH 6.0, 40° C., 3 months
  Residual ratio of SSSR: 77%
pH 6.0, 40° C., 6 months
  Residual ratio of SSSR: 68%
pH 6.5, 40° C., 2 months
  Residual ratio of SSSR: 84%
pH 6.5, 40° C., 3 months
  Residual ratio of SSSR: 67%
pH 6.5, 40° C., 6 months
  Residual ratio of SSSR: 51%
pH 7.0, 40° C., 2 months
  Residual ratio of SSSR: 70%
pH 7.0, 40° C., 3 months
  Residual ratio of SSSR: 51%
pH 7.0, 40° C., 6 months
  Residual ratio of SSSR: 35%

## Phe-Gly-Leu-Met-NH2 (FGLM-NH2) [tetrapeptide at the C-terminal of Substance P, used as hydrochloride]
pH 2.5, 40° C., 2 months
  Residual ratio of FGLM: 79%
pH 2.5, 40° C., 3 months
  Residual ratio of FGLM: 72%
pH 2.5, 40° C., 6 months
  Residual ratio of FGLM: 54%
pH 3.0, 40° C., 2 months
  Residual ratio of FGLM: 91%
pH 3.0, 40° C., 3 months
  Residual ratio of FGLM: 89%
pH 3.0, 40° C., 6 months
  Residual ratio of FGLM: 79%
pH 3.5, 40° C., 2 months
  Residual ratio of FGLM: 95%
pH 3.5, 40° C., 3 months
  Residual ratio of FGLM: 94%
pH 3.5, 40° C., 6 months
  Residual ratio of FGLM: 90%
pH 4.0, 40° C., 2 months
  Residual ratio of FGLM: 96%
pH 4.0, 40° C., 3 months
  Residual ratio of FGLM: 96%
pH 4.0, 40° C., 6 months
  Residual ratio of FGLM: 94%
pH 4.5, 40° C., 2 months
  Residual ratio of FGLM: 97%
pH 4.5, 40° C., 3 months
  Residual ratio of FGLM: 97%
pH 4.5, 40° C., 6 months
  Residual ratio of FGLM: 96%
pH 5.0, 40° C., 2 months
  Residual ratio of FGLM: 97%
pH 5.0, 40° C., 3 months
  Residual ratio of FGLM: 97%
pH 5.0, 40° C., 6 months
  Residual ratio of FGLM: 97%
pH 5.5, 40° C., 2 months
  Residual ratio of FGLM: 97%
pH 5.5, 40° C., 3 months
  Residual ratio of FGLM: 97%
pH 5.5, 40° C., 6 months
  Residual ratio of FGLM: 96%
pH 6.0, 40° C., 2 months
  Residual ratio of FGLM: 96%
pH 6.0, 40° C., 3 months
  Residual ratio of FGLM: 96%
pH 6.0, 40° C., 6 months
  Residual ratio of FGLM: 95%
pH 6.5, 40° C., 2 months
  Residual ratio of FGLM: 95%
pH 6.5, 40° C., 3 months
  Residual ratio of FGLM: 95%
pH 6.5, 40° C., 6 months
  Residual ratio of FGLM: 93%
pH 7.0, 40° C., 2 months
  Residual ratio of FGLM: 94%
pH 7.0, 40° C., 3 months
  Residual ratio of FGLM: 93%
pH 7.0, 40° C., 6 months
  Residual ratio of FGLM: 90%
